System: MS2 coat protein
Assay: apparent KD of MS2 coat protein; designed switch direction (-1 OFF switch, 1 ON switch): -1; higher = weaker reporter binding
In short: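 Three titration conditions were used: no input, 200 uM small-molecule ligand, and an oligonucleotide input. In each, SNAP-549-labelled MS2 coat protein was raised from 0.7 or 1.5 nM, doubling, to 3 µM over designed RNA switches transcribed on Illumina chips by stalled E. coli RNA polymerase. Curve fits of normalised cluster fluorescence gave values whose per-design median over clusters is the apparent KD.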

[1] = Eterna round: R95, input ligand: microRNA oligo, concentration not stated
[2] = input ligand: microRNA oligo, concentration not stated
[3] = Eterna round: R95, input ligand: FMN 200 uM
[4] = Eterna round: R95, input ligand: none

Row | Sequence | apparent KD of MS2 coat protein [1] | apparent KD of MS2 coat protein (input ligand: FMN 200 uM) | apparent KD of MS2 coat protein (input ligand: none) | apparent KD of MS2 coat protein [2] | apparent KD of MS2 coat protein [3] | apparent KD of MS2 coat protein [4]
1 | CUUUUGUGAGGAUAUCAGUAGUAAAGAAAUAAAAUUACUACUGAGAAGGCACAUGAGGAUCACCCAUGUUCCUC [Mat - Exclusion 4 - Mod of Salish - D62] (puzzle: Exclusion 4) | 36.2 nM | – | – | – | – | –
2 | UGCGAGUAAGGAUAUUCGCGACCGCCCACAAAGGCGGUCGAGAAGAAGGUACUUGAGGAUCACCCAAGUCCUAA [Anremaqu] (Eterna round: R97, puzzle: Exclusion 4) | – | 98.2 nM | 22 nM | – | – | –
3 | AGCAGACGAGGAUAUGAUCAAUAAUACAUGAGGAUCACCCAUGUAAUACUGAUCCAUGGAUCAGAAGGCGUCUGCU [E5/5-A1] (Eterna round: R97, puzzle: Exclusion 5) | – | 23.5 nM | 16.4 nM | – | – | –
4 | UGUAGAGUGGUAGGAUAUCCGUCUGUUUCAGUCGGAGAAGGGCCACAGUCACUGGGUCCUAAUAUCAUGGAGACCUGAUCUACU [pwkr exNG1 F6.14] (Eterna round: R96, puzzle: Exclusion NG 1) | – | 599 nM | 383 nM | 288 nM | – | –
5 | ACAUGAGGAUCACCCAUGUGGACGAAAAGGCUCAUGUAGAGUGAGGAUAUGUGAGACGAACGAGAACAGAAGGCACAAGACAGG [Deportation 5 - Jieux - Exclusion NG 3] (Eterna round: R96, puzzle: Exclusion NG 3) | – | 17.4 nM | 20 nM | 22.3 nM | – | –
6 | GGGUGCAGGCUGAGAUCCUACAUGAGGAUCACCCAUGUGGUCCGGUGACGUGAGUCACCGGACUUAGCUCGUCUUGU [salish99_S_TOV1_R5_007] (Eterna round: R97, puzzle: Sensor, turn-off variant 1) | – | 162 nM | 192 nM | – | – | –
7 | CCUCAACAGUAGGAUAUCAUCAAACUAUUGUGAUGAGAAGGACUGACAUGAGGAUCACCCAUGUUAACGUGAUG [Exclusion 6 - 6:c] (puzzle: Exclusion 6) | 21 nM | – | – | – | 70.8 nM | 20.4 nM
8 | CUGAGGUAGCGGUCCUAUGACAUGAGGAUCACCCAUGUACCUUGCUUCGAGCUUAUUGCUCGUCUUAUGAUUCUCGG [Mat - Sensor v3 - turn-off var 1 - JL Mod - D33] (puzzle: Sensor v3, turn-off variant 1) | 714 nM | – | – | – | 551 nM | 613 nM
9 | AGAACAUGAGGAUCACCCAUGUCGCUUUGCCUACCAAACAGGGAGGAUAUGUAGGGCGCGCACCUACAGAAGGCCCAAACGGAA [Eternabot solution 13] (Eterna round: R96, puzzle: Exclusion NG 3) | – | 17 nM | 22.5 nM | 18.5 nM | – | –
10 | GGUAUGGCCACAGGAUAUUGAGCCACAUGAGGAUCACCCAUGUGAGGACGUAGAAUCGCCUGGCCCAAGAAGGGUGAAGCCCAU [Eternabot solution 4] (Eterna round: R96, puzzle: Exclusion NG 2) | – | 17.1 nM | 28 nM | 13.1 nM | – | –
11 | CGGCUACGAUGAGGAUAUACGCACAUGAGGAUCACCCAUGUAAAUCACGGGUAAAGAUCUUCAUCGUAGAAGGCAUAAGGGCCC [Edarbelabe] (Eterna round: R96, puzzle: Exclusion NG 2) | – | 31.8 nM | 31.4 nM | 20.9 nM | – | –
12 | AGCUGUGGCCGAGGAUAUCUAAUAAUCUCAACCGAAAUAUAAUCGGACAUGAGGAUCACCCAUGUAGAGAAGGCGGUCUCAGCA [Eli eng2 - 067] (Eterna round: R96, puzzle: Exclusion NG 2) | – | – | – | 27.2 nM | – | –
13 | AAGAAGAUCAGAGGAUAUGGAGCUGAAACGGCGCUAGAAGGCUGUCUAGUGUAACAUGAGGAUCACCCAUGUAGGGACCUCUAA [EX ng 1 4.3] (Eterna round: R96, puzzle: Exclusion NG 1) | – | 874 nM | 884 nM | 795 nM | – | –
14 | UUAUUAAGUGUGAGGAUAUGCUGGUCCUUGGAUCAGCAGAAGGCACAUGAGGAUCACCCAUGUACAAUAUAUUA [Mat - Exclusion 4 - JL Mod - D30] (puzzle: Brourd's mod of Exclusion 4) | 38.7 nM | – | – | – | – | –
15 | CAUACUGAAGUUAGGAUAUUCGAACGUAUACGGAUGGAGAAGGGACAUGAGGAUCACCCAUGUAGUUAGUAAAG [EX-4 Malc #10] (puzzle: Brourd's mod of Exclusion 4) | 17.4 nM | – | – | – | 17.3 nM | 22.3 nM
16 | AUUUGGUCAGGAUAUUGUUAGUUUAGUUGUUUGUAUUAGUUCGAGAAGGGACAUGAGGAUCACCCAUGUGAUUU [Ex4 #75] (Eterna round: R97, puzzle: Exclusion 4) | – | 87.1 nM | 100 nM | – | – | –
17 | UCUUGUGUUGAGGAUAUGCGCCGGCUCGCUGGCGCAGAAGGCGGCACAUGAGGAUCACCCAUGUCAGUUCGCGC [salish99_ex6_r004_007] (Eterna round: R97, puzzle: Exclusion 6) | – | 56.3 nM | 205 nM | – | – | –
18 | ACCUCACAUGAGGAUCACCCAUGUCAGGAUAUACAAGAAAAUAACCGGAAAGACCGGAGUAGAAGGGACAUAAG [Arisus] (puzzle: Exclusion 1) | 16.2 nM | – | – | – | 30.3 nM | 17.1 nM

Row | Sequence | apparent KD of MS2 coat protein [1] | apparent KD of MS2 coat protein (input ligand: FMN 200 uM) | apparent KD of MS2 coat protein (input ligand: none) | apparent KD of MS2 coat protein [2] | apparent KD of MS2 coat protein [3] | apparent KD of MS2 coat protein [4]
19 | ACCUCACAUGAGGAUCACCCAUGUCAGGAUAUACAAACCGUGUAAAGACACGGUCGUAGUAGAAGGGACUAUGG [Telalebees] (puzzle: Exclusion 1) | 59.1 nM | – | – | – | – | –
20 | UAUUAAGCAAGCAGAUCCCACAUGAGGAUCACCCAUGUGCUCGUCUUAUAAGGUACUGUGACGAAAGUCACGGUACC [Sensor 3, v1 - 91 v12] (Eterna round: R97, puzzle: Sensor, turn-off variant 1) | – | 126 nM | 156 nM | – | – | –
21 | AAGUACCGUCACGAUAGUGAUGGUACAGCAAGCAGUGAAACAUGAGGAUCACCCAUGUCCUCAAUUGCUCGUCUUAU [Sensor 3 - 78] (puzzle: Sensor v3, turn-off variant 2) | 211 nM | – | – | – | 43.3 nM | 44.5 nM
22 | UCGCUGCGAGGAUAUACGUUUGCGCGCUUUCGUUUGCGCGUACAUGAGGAUCACCCAUGUAGAAGGCGCGCCGC [Apr-15 SS2-8] (puzzle: Exclusion 2) | 13.2 nM | – | – | – | – | –
23 | GCGCGAAGCAAGGAUAUCCCAGGGAGCUCCCUGGGAGAAGGUGCCACAUGAGGAUCACCCAUGUGGUGAUCCUG [eternacac ex6r4 sub16] (Eterna round: R97, puzzle: Exclusion 6) | – | 25.6 nM | 17.7 nM | – | – | –
24 | CCGCAGUGAGGAUAUUGUCAUAGACGGUGUGAAUCACGGGACAAGAAGGUACAUGAGGAUCACCCAUGUGGGUG [Eternabot (L1) Solution 1] (Eterna round: R97, puzzle: Exclusion 4) | – | 54.3 nM | 1560 nM | – | – | –
25 | GUCACAUGGACAUAGGAUCACAUGAGGAUCACCCAUGUGACUAACAAGCUUUUUGUUCGUCUUAUGUCUAUGUGAAU [Stov1/16-B2] (Eterna round: R97, puzzle: Sensor, turn-off variant 1) | – | 13.2 nM | 12.3 nM | – | – | –
26 | GGACUAGGAGGAUAUACAUGAGGAUCACCCAUGUGUUGAUAAAGUCUACACAAUGUUAGUAGAAGGCUUAGACC [Eternabot (L2) Solution 18] (Eterna round: R97, puzzle: Exclusion 3) | – | 22.5 nM | 17.5 nM | – | – | –
27 | AAGGGUGCUUUCAGAACGACAUGAGGAUCACCCAUGUAGACUGAGGAUAUCUACUCCUAAGGACGGGAGAAGGUAGUGUAAUGC [Ex NG3 #66] (Eterna round: R96, puzzle: Exclusion NG 3) | – | 22.8 nM | 26.1 nM | 17.7 nM | – | –
28 | UAGUAUAUCUAUGGGAGUAACAUGAGGAUCACCCAUGUAUGUCUUGUUUUUUGUUCGUCAUAGGCCGGUUGAACGGU [JR_SV3TOV1_Sub027] (puzzle: Sensor v3, turn-off variant 1) | 27.7 nM | – | – | – | 23.3 nM | 26.5 nM
29 | GUGAUACAUGAGGAUCACCCAUGUCAGGAUAUGAUACUAUGUACUUCGGUACAUAGUAUCAGAAGGGACAGUGA [Ex1-3: 4] (puzzle: Exclusion 1) | 125 nM | – | – | – | – | –
30 | AUUGAUGUUGAGGAUAUGCUUUUAUUUAUAAUAGCAGAAGGCGAUACAUGAGGAUCACCCAUGUUCAUGGUAGU [JR_E6_Sub095] (Eterna round: R96, puzzle: Exclusion 6) | – | 77.6 nM | 63.4 nM | 52.3 nM | – | –
31 | CCUUUGUCAGGAUAUCAGAACACGCCCGUAGGGAGUGCAAAUGAGAAGGGACAUGAGGAUCACCCAUGUACAGA [Leonveti] (puzzle: Exclusion 4) | 29.4 nM | – | – | – | – | –
32 | AAUGUCUGAGGAUAUCGAUUAGUGUACAUGAGGAUCACCCAUGUUUUUAUUUGUAUAUUACGAGAAGGCAGUGGAA [JR_E5_Sub087] (puzzle: Exclusion 5) | 19.1 nM | – | – | – | 20.6 nM | 17.2 nM
33 | AGUACUAACACGCGAGUGUUAGUACAAUAAGCUUGUGAAACAUGAGGAUCACCCAUGUCCUCAUAAGCUCGUCUUAU [salish99_TOv2_r3_059] (puzzle: Sensor v3, turn-off variant 2) | 674 nM | – | – | – | 16.7 nM | 14.5 nM
34 | UGAUCAAAUGUCAGGAUAUGCUGUUGGAAACAACAGCAGAAGGGACAUGAGGAUCACCCAUGUCUUGUCGAUUU [Magic-02] (puzzle: Brourd's mod of Exclusion 4) | 20.4 nM | – | – | – | – | –
35 | GGGAAGUGAGGAUAUAUGAGAGAGGCUGAACCGGACGAGAAGUAGAAGGCACAUGAGGAUCACCCAUGUAGGGA [JR_Exclu4_Sub025] (puzzle: Exclusion 4) | 128 nM | – | – | – | – | –
